Test results published in article PMC4976313, “ZCF32, a fungus specific Zn(II)2 Cys6 transcription factor, is a repressor of the biofilm development in the human pathogen Candida albicans”.

Target: T1, Zcf32 ZFN-MBP (Candida albicans, UniProt Q5ANG4 1-116)
T1 sequence: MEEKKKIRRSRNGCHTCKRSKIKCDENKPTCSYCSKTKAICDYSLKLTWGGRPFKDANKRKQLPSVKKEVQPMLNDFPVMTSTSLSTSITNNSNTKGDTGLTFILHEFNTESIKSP
Test: EMSA; EMSA: 1X HEPES buffer (20 mM HEPES pH 7.8, 150 mM KCl, 0.1% BSA, 10% glycerol), on ice 30 min, 6% native PAGE
Conditions: protein: recombinant; tags: MBP (pMAL-c2x); chain copies: 2; label: 32P 5' end; blunt

B1: O2 (dsDNA)
DNA 1: CCGATATAGCCGATGCAT
DNA 2: ATGCATCGGCTATATCGG
B1: binds.

B2: O1 (dsDNA)
DNA 1: TACCCGATATAGCCGATG
DNA 2: CATCGGCTATATCGGGTA
B2: binds.
